From patent US20090291081A1 (AbbVie / Abbott, published 2009)
Substitutions are numbered along the chain they refer to. Each block holds one binder with its values, some of them ahead of it.

What was measured:
human IL-1α [1] = target: T1, human IL-1α (human, UniProt P01583 113-271); assay: cell-based or functional assay
T1 sequence (looked up): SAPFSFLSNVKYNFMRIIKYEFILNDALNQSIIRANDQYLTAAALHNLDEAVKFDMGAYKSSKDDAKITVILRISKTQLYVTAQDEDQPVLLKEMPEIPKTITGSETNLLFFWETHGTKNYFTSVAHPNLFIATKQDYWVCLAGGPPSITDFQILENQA

human IL-1α [2] = target: T1, human IL-1α; assay: Table 62 IC50; RBA presumed
human IL-1β = target: T2, human IL-1β (human, UniProt P01584 117-269); assay: IC50 column of Table 63; receptor binding assay presumed
T2 construct: antigen of the ABT2 dAbs; also called hIL-1β; IL-1 beta

ND50 (human IL-1α [1]): 6.2 nM
IC50 (human IL-1α [2]): 1 µM
B1: ABT1-162 (other)
VL: DIQMTQSPSSLSASVGGRVTITCRASHYIRNRLHWYQQKPGKAPKLLIARGSALQSGVPSRFSGSGSGTDFTLTISSLQPEDFATYYCVQDGYLPPTFGQGTKVEIKR
notes: VK dAb

IC50 (human IL-1β): 1 µM
B2: ABT2-63 (other)
VL: DIQMTQSPSSLSASVGDRVTITCRASQSIRVFLSWYQQKPGKAPKLLIYNASYLQSGVPSRFSGSGSGTDFTLTISSLQPEDFATYYCQQRALYPTTFGQGTKVEIKR
notes: VK dAb

ND50 (human IL-1α [1]): 1000 nM
IC50 (human IL-1α [2]): > 1 µM
B3: ABT1-165 (other)
VL: DIQMTQSPSSLSASVGDRVTITCRASSSIRAGLAWYQQKPGKAPKLLIGPESGLQSGVPSRFSGSGSGTDFTLTISSLQPEDFATYYCGQGIDGPATFGQGTKVEIKR
notes: VK dAb

IC50 (human IL-1β): 0.1 µM
B4: ABT2-65-1 (other)
VH: EVQLLESGGGLVQPGGSLRLSCAASGFTFEDYQMGWVRQAPGKGLEWVSSISAMGNRTYYADSVKGRFTISRDDSKNTLYLQMKSLRAEDTAVYYCAQNLVRTQSKMWMFDYWGQGTLVTVSS
notes: VH dAb

IC50 (human IL-1β): 0.3 µM
B5: ABT2-65-83 (other)
VH: B4 VH with A23V, K84N, L86Q, T103L, Q104G, S105R, K106S, M107R
notes: VH dAb

IC50 (human IL-1β): 0.02 µM
B6: ABT2-65-33 (other)
VH: B4 VH with K84N, T103Y, Q104M, S105K, K106S, M107Q
notes: VH dAb

IC50 (human IL-1β): 0.05 µM
B7: ABT2-65-11 (other)
VH: B4 VH with E30R, D31A, Q33P, K84N, Q98N
notes: VH dAb

IC50 (human IL-1β): 0.02 µM
B8: ABT2-65-13 (other)
VH: B4 VH with E30R, D31E, K84N, Q98N
notes: VH dAb

IC50 (human IL-1β): 0.02 µM
B9: ABT2-65-30 (other)
VH: B4 VH with Q3R, K84N, T103L, Q104N, S105R, K106R, M107D
notes: VH dAb

IC50 (human IL-1β): 0.005 µM
B10: ABT2-65-28 (other)
VH: B4 VH with K84N, R102Q, T103F, Q104R, S105R, K106S, M107Q
notes: VH dAb

IC50 (human IL-1β): 0.1 µM
B11: ABT2-65-22 (other)
VH: B4 VH with E30L, D31G, Q33P, R72P, K84N, Q98K
notes: VH dAb

IC50 (human IL-1β): 0.008 µM
B12: ABT2-65-76 (other)
VH: B4 VH with A23V, S49T, K84N, T103L, Q104G, S105R, K106S, M107R
notes: VH dAb

IC50 (human IL-1β): 0.8 µM
B13: ABT2-65-23 (other)
VH: B4 VH with G16E, E30K, D31V, Q33P, K84N, Q98K
notes: VH dAb

IC50 (human IL-1β): 0.05 µM
B14: ABT2-65-24 (other)
VH: B4 VH with E30A, D31A, K84N
notes: VH dAb

IC50 (human IL-1β): 0.02 µM
B15: ABT2-65-18 (other)
VH: B4 VH with E30G, K84N, Q98E, R102Q, T103W, Q104R, S105I, K106G, M107A
notes: VH dAb

IC50 (human IL-1β): 0.02 µM
B16: ABT2-65-12 (other)
VH: B4 VH with E30R, D31E, Q33W, K84N, Q98N
notes: VH dAb

IC50 (human IL-1β): 0.003 µM
B17: ABT2-65-31 (other)
VH: B4 VH with K84N, R102K, T103I, Q104M, S105R, K106L, M107K
notes: VH dAb

IC50 (human IL-1β): 0.06 µM
B18: ABT2-65-84 (other)
VH: B4 VH with A23V, T28S, G42R, V48I, K84N, T103L, Q104G, S105R, K106S, M107R
notes: VH dAb

IC50 (human IL-1β): 0.004 µM
B19: ABT2-65-32 (other)
VH: B4 VH with K84N, R102A, T103V, Q104S, S105R, K106G, M107R
notes: VH dAb

IC50 (human IL-1β): 0.1 µM
B20: ABT2-65-9 (other)
VH: B4 VH with Q13H, E30R, D31W, Q33P, K84N, Q98E
notes: VH dAb

IC50 (human IL-1β): 0.2 µM
B21: ABT2-65-16 (other)
VH: B4 VH with K84N, Q98E, R102K, T103W, Q104R, K106A, M107E
notes: VH dAb

IC50 (human IL-1β): 0.3 µM
B22: ABT2-65-39 (other)
VH: B4 VH with K84N, Q98G
notes: VH dAb

IC50 (human IL-1β): 0.03 µM
B23: ABT2-65-78 (other)
VH: B4 VH with A23V, K84N, T103L, Q104G, S105T, K106S, M107R, T117A
notes: VH dAb

IC50 (human IL-1β): 0.0035 µM
B24: ABT2-65-27 (other)
VH: B4 VH with K84N, Q98E, T103L, Q104W, S105K, K106G, M107R
notes: VH dAb

IC50 (human IL-1β): 0.03 µM
B25: ABT2-65-75 (other)
VH: B4 VH with P14H, A23V, K84N, T103L, Q104G, S105K, K106S, M107R
notes: VH dAb

IC50 (human IL-1β): 0.02 µM
B26: ABT2-65-26 (other)
VH: B4 VH with K84N, R102L, T103V, Q104R, K106G, M107Y
notes: VH dAb

IC50 (human IL-1β): 0.1 µM
B27: ABT2-65-15 (other)
VH: B4 VH with E30G, D31I, K84N
notes: VH dAb

IC50 (human IL-1β): 0.02 µM
B28: ABT2-65-49 (other)
VH: B4 VH with E1G, K84N
notes: VH dAb

IC50 (human IL-1β): 0.02 µM
B29: ABT2-65-2 (other)
VH: B4 VH with E30S, D31T, Q33N, K84N, Q98N
notes: VH dAb

IC50 (human IL-1β): 0.03 µM
B30: ABT2-65-38 (other)
VH: B4 VH with S71Y, K84N
notes: VH dAb

IC50 (human IL-1β): 1 µM
B31: ABT2-65-14 (other)
VH: B4 VH with S25P, E30P, D31Y, Q33P, K84N, Q98K
notes: VH dAb

IC50 (human IL-1β): 0.004 µM
B32: ABT2-65-25 (other)
VH: B4 VH with K84N, T103Y, Q104R, K106Y, M107Y, S122L
notes: VH dAb

IC50 (human IL-1β): 0.1 µM
B33: ABT2-65-37 (other)
VH: B4 VH with E30A, K84N
notes: VH dAb

IC50 (human IL-1β): 0.03 µM
B34: ABT2-65-46 (other)
VH: B4 VH with K84N, Q98K, N99W, V101T, M107L, W108G, M109Y
notes: VH dAb

IC50 (human IL-1β): 0.02 µM
B35: ABT2-65-29 (other)
VH: B4 VH with K84N, R102L, T103V, Q104R, S105V, K106G, M107W
notes: VH dAb

ND50 (human IL-1α [1]): 100 nM
IC50 (human IL-1α [2]): 0.1 µM
B36: ABT1-141-45 (other)
VL: DIQMTQSPSSLSASVGDRVTITCRASQWIQKQLAWYQQKPGKAPKLLIYSSSYLQSGVPSRFSGSGSGTDFTLTISSLQLEDFATYYCQQHLRVPMTLGQGTKVEIKR
notes: VK dAb

ND50 (human IL-1α [1]): 10 nM
IC50 (human IL-1α [2]): 0.05 µM
B37: ABT1-141-53 (other)
VL: B36 VL with Q38L, A43T, Y49F, L80P, L98F
notes: VK dAb

ND50 (human IL-1α [1]): 20 nM
IC50 (human IL-1α [2]): 0.01 µM
B38: ABT1-141-51 (other)
VL: B36 VL with A43V, Q79E, L80P, L98F, E105V
notes: VK dAb

ND50 (human IL-1α [1]): 1 nM
IC50 (human IL-1α [2]): 0.003 µM
B39: ABT1-141-48 (other)
VL: B36 VL with Y49F, Y53H, L80P, T85S, L98F
notes: VK dAb

ND50 (human IL-1α [1]): 1 nM
IC50 (human IL-1α [2]): 0.001 µM
B40: ABT1-141-47 (other)
VL: B36 VL with S26N, Y53H, L80P, E81Q, L98F
notes: VK dAb

ND50 (human IL-1α [1]): 20 nM
IC50 (human IL-1α [2]): 0.01 µM
B41: ABT1-141-50 (other)
VL: B36 VL with A43T, L80P, L98F, K103N
notes: VK dAb

ND50 (human IL-1α [1]): 5 nM
IC50 (human IL-1α [2]): 0.003 µM
B42: ABT1-141-49 (other)
VL: B36 VL with Q38L, Y53H, L54S, L80P, L98F
notes: VK dAb

ND50 (human IL-1α [1]): 1 nM
IC50 (human IL-1α [2]): 0.003 µM
B43: ABT1-141-77 (other)
VL: B36 VL with S26N, Y49F, Y53H, L80P, E81Q, L98F
notes: VK dAb

ND50 (human IL-1α [1]): 1.7 nM
IC50 (human IL-1α [2]): 0.003 µM
B44: ABT1-141-80 (other)
VL: B36 VL with S26N, Y53H, S67Y, L80P, L98F
notes: VK dAb

ND50 (human IL-1α [1]): 0.7 nM
IC50 (human IL-1α [2]): 0.003 µM
B45: ABT1-141-78 (other)
VL: B36 VL with S26N, Y53H, S67Y, L80P, E81Q, L98F
notes: VK dAb

ND50 (human IL-1α [1]): 1 nM
IC50 (human IL-1α [2]): 0.001 µM
B46: ABT1-141-76 (other)
VL: B36 VL with S26N, Y53H, L80P, L98F
notes: VK dAb

ND50 (human IL-1α [1]): 1 nM
IC50 (human IL-1α [2]): 0.001 µM
B47: ABT1-141-70 (other)
VL: B36 VL with Y53H, S67Y, L80P, L98F
notes: VK dAb

ND50 (human IL-1α [1]): 2.4 nM
IC50 (human IL-1α [2]): 0.003 µM
B48: ABT1-141-79 (other)
VL: B36 VL with S26N, Y49F, Y53H, L80P, L98F
notes: VK dAb

ND50 (human IL-1α [1]): < 100 nM
IC50 (human IL-1α [2]): 0.002 µM
B49: ABT1-158 (other)
VL: DIQMTQSPSSLSASVGDRVTITCRASRSIGRGLNWYQQKPGKAPKLLIGGWSGLQSGVPSRFSGSGSGTDFTLTISSLQPEDFATYYCAQASPLPTFGQGTKVEIKR
notes: VK dAb

ND50 (human IL-1α [1]): 100 nM
IC50 (human IL-1α [2]): 0.4 µM
B50: ABT1-148 (other)
VL: DIQMTQSPSSLSASVGDRVTITCRASQSISSYLNWYQQKPGKAPKLLIGALSGLQSGVPSRFSGSGSGTDFTLTISSLQPEDFATYYCMQWYRHPSTFGQGTKVEIKR
notes: VK dAb

ND50 (human IL-1α [1]): 8 nM
IC50 (human IL-1α [2]): > 1 µM
B51: ABT1-161 (other)
VL: DIQMTQSPSSLSASVGDRVTITCRASHAITGSLRWYQQKPGKAPKLLISGGSVLQSGVPSRFSGSGSGTDFTLTISSLQPEDFATYYCAQWLGGPMTFGQGTKVEIKR
notes: VK dAb
